Laboratory results as given in article PMC3553676.

Assays:
Ku [1] = molecular target: T1, Ku (Mycobacterium smegmatis, UniProt A0R3S7 1-318); assay: EMSA
T1 sequence: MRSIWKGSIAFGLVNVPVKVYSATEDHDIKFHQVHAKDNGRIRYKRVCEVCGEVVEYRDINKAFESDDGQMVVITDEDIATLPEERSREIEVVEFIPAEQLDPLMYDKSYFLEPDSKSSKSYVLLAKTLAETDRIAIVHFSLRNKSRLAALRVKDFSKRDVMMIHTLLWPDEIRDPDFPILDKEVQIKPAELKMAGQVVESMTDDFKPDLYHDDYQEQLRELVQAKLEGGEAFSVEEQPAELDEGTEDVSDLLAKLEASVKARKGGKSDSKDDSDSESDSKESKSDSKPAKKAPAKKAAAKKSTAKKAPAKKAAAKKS

Ku [2] = molecular target: T1, Ku; assay: EMSA; remark: listed apart in the source

B1: 37 bp DNA (dsDNA)
DNA 1: CCTAGGCTACACCTACTCTTTGTAAGAATTAAGCTTC
DNA 2: GAAGCTTAATTCTTACAAAGAGTAGGTGTAGCCTAGG
B1 was tested, and the Kd (Ku [1]) was 8.6 ± 0.5 nM.

B2: 21/34 nt hairpin substrate (structured_DNA)
DNA 1: GTTTTTAGTTTATTGGGCGCG
DNA 2: CGCGCCCAGCTTTCCCAGCTAATAAACTAAAAAC
B2: binds (Ku [2]).
